# Measurements taken from the supplement of paper PMC10567573.
# B1: KCNG1 (parent)
# chain: AVNLSVSTLPSLREEEEQVRAHAP
# B2: KCTD10 (parent)
# chain: SSKEEQKLIATSNKPAVKLLYNRS
# Variants of: B1
# Assay: protein stability index of a GFP-peptide fusion (GPS, HEK-293T) (PSI 1-6); higher = more stable
# Details: c terminus: a fixed tail appended
# 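Further: lentivirally expressed fusions sorted by FACS into six bins by GFP to DsRed ratio, PSI derived from sequencing read proportions per bin multiplied by bin number.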
row,Variant,protein stability index
1,P24E,5.61
2,P24N,5.34
3,P24F,4.42
4,P24G,5.37
5,P24R,5.08
6,P24C,5.04
7,P24T,5.36
8,P24S,4.84
9,P24V,5.11
10,P24I,4.58
11,P24W,4
12,P24H,5.41
13,P24D,5.57
14,P24K,4.92
15,P24Y,4.41
16,P24M,4.55
17,P24A,5.57
18,P24L,4.94
19,P24Q,5.23
20,R20Y,4.75
21,R20H,5.06
22,R20L,5.37
23,R20T,5.27

row,Variant,protein stability index
1,R20N,5.3
2,R20M,5.2
3,R20K,5.17
4,R20W,4.55
5,R20I,5.14
6,R20S,4.75
7,R20P,5.17
8,R20V,4.94
9,R20Q,5.12
10,A23R,5.04
11,A23L,5.02
12,A23I,4.82
13,A23K,5.1
14,A23P,5.29
15,A23F,4.1
16,A23N,5.26
17,A23H,4.87
18,A23T,4.87
19,A23W,4.32
20,A23Q,5.27
21,A23V,5.07
22,A23E,4.82
23,A23C,4.86

row,Variant,protein stability index
1,A23D,5.3
2,A23M,4.83
3,A23G,5.71
4,A23S,5.2
5,A23Y,4.3
6,A21H,4.68
7,A21W,3.35
8,A21L,4.71
9,A21V,4.36
10,A21T,4.54
11,A21Q,5.25
12,A21R,4.99
13,A21N,4.28
14,A21D,5.32
15,A21K,4.64
16,A21G,5.13
17,A21M,4.27
18,A21Y,3.93
19,A21F,3.75
20,A21C,4.74
21,A21I,4.11
22,A21P,4.97
23,A21E,4.52

row,Variant,protein stability index
1,A21S,4.96
2,H22L,4.83
3,H22E,5.62
4,H22I,4.45
5,H22C,4.92
6,H22R,5.22
7,H22W,3.02
8,H22V,4.76
9,H22Q,4.57
10,H22G,5.29
11,H22M,5.28
12,H22T,4.91
13,H22D,5.01
14,H22P,4.62
15,H22Y,4.87
16,H22F,4.49
17,H22K,5.49
18,H22N,5.26
19,H22A,5.11
20,H22S,5.49

# Variants of: B2
# Assay: as above
# Details: c terminus: a fixed tail appended
row,Variant,protein stability index
1,T11R,3.37
2,T11F,3.63
3,T11D,4.68
4,T11N,3.92
5,T11L,3.7
6,T11I,3.73
7,T11K,4.19
8,T11Y,3.6
9,T11P,3.97
10,T11S,4.26
11,T11M,3.6
12,T11H,3.94
13,T11G,4.16
14,T11V,3.75
15,T11Q,4.15
16,T11C,3.61
17,T11E,4.58
18,T11A,4.42
19,T11W,3.35
20,K3I,3.91
21,K3P,4.06
22,K3H,4.23
23,K3E,4.16
24,K3G,3.32
25,K3D,4.5

row,Variant,protein stability index
1,K3N,4.04
2,K3A,4.67
3,K3F,3.83
4,K3L,4.07
5,K3Q,4.25
6,K3W,3.93
7,K3R,3.97
8,K3Y,3.26
9,K3M,4.08
10,K3S,3.58
11,K3V,3.96
12,K3T,4.18
13,K3C,3.86
14,S2T,3.86
15,S2N,4.16
16,S2A,4.54
17,S2F,3.57
18,S2E,4.43
19,S2P,4.45
20,S2L,3.79
21,S2W,3.26
22,S2H,3.99
23,S2Q,4.25
24,S2M,4.13
25,S2G,4.25

row,Variant,protein stability index
1,S2Y,3.56
2,S2K,3.97
3,S2C,2.83
4,S2R,4.07
5,S2D,4.55
6,S2V,3.5
7,S2I,3.88
8,K7H,3.85
9,K7V,3.68
10,K7N,4.32
11,K7C,3.86
12,K7Y,3.29
13,K7Q,4.25
14,K7M,3.3
15,K7L,3.21
16,K7T,3.87
17,K7W,2.87
18,K7A,4.1
19,K7E,4.4
20,K7G,4.45
21,K7S,3.55
22,K7I,3.28
23,K7D,4.49
24,K7F,3.02
25,K7R,3.92

row,Variant,protein stability index
1,K7P,4.39
2,S12Y,3.38
3,S12P,4.29
4,S12F,3.34
5,S12R,4.02
6,S12M,3.42
7,S12W,2.79
8,S12G,3.89
9,S12D,4.52
10,S12C,3.81
11,S12A,3.89
12,S12K,4.27
13,S12H,3.46
14,S12I,3.92
15,S12V,3.88
16,S12N,4.02
17,S12E,4.42
18,S12T,4.34
19,S12Q,4.26
20,S12L,3.72
21,S1N,4.32
22,S1W,3.08
23,S1E,4.49
24,S1R,3.8
25,S1D,3.9

row,Variant,protein stability index
1,S1Y,3.18
2,S1L,3.69
3,S1K,4.12
4,S1T,4.1
5,S1P,3.98
6,S1Q,4.22
7,S1A,3.87
8,S1H,4.21
9,S1C,3.82
10,S1I,3.56
11,S1M,4.26
12,S1F,3.6
13,S1V,3.84
14,S1G,3.96
15,E5C,3.34
16,E5V,2.8
17,E5P,3.56
18,E5H,3.78
19,E5I,2.97
20,E5N,3.7
21,E5F,2.26
22,E5M,2.97
23,E5T,3.82
24,E5D,4.13
25,E5A,3.38

row,Variant,protein stability index
1,E5W,1.79
2,E5Q,3.83
3,E5R,3.59
4,E5G,1.71
5,E5K,3.35
6,E5L,2.83
7,E5S,3.87
8,E5Y,2.97
9,I9H,3.81
10,I9G,4.54
11,I9C,3.91
12,I9Q,4.31
13,I9E,4.72
14,I9A,3.97
15,I9W,3.93
16,I9M,3.96
17,I9S,4.34
18,I9F,4.08
19,I9K,4.39
20,I9R,4.33
21,I9D,4.74
22,I9L,3.98
23,I9Y,4.41
24,I9T,4.18
25,I9P,4.69

row,Variant,protein stability index
1,I9N,4.36
2,I9V,4.34
3,L8Y,4.02
4,L8G,4.51
5,L8W,3.79
6,L8I,4.32
7,L8E,4.96
8,L8P,4.88
9,L8N,4.31
10,L8T,4.47
11,L8Q,4.6
12,L8A,4.88
13,L8F,3.51
14,L8M,4.43
15,L8D,4.88
16,L8H,4.46
17,L8K,4.75
18,L8C,4.42
19,L8S,4.62
20,L8R,4.34
21,L8V,4.66
22,Q6F,3.15
23,Q6D,4.5
24,Q6H,4.08
25,Q6E,4.52

row,Variant,protein stability index
1,Q6K,3.1
2,Q6W,2.79
3,Q6Y,4.01
4,Q6N,3.96
5,Q6S,3.86
6,Q6M,3.56
7,Q6I,3.33
8,Q6R,3.93
9,Q6L,3.59
10,Q6A,4.23
11,Q6C,4.15
12,Q6V,3.6
13,Q6T,4.44
14,Q6G,3.8
15,Q6P,4
16,N13G,4.28
17,N13P,4.12
18,N13E,4.54
19,N13K,3.96
20,N13S,3.79
21,N13D,4.73
22,N13C,2.31
23,N13H,3.9
24,N13Q,2.95
25,N13F,3.16

row,Variant,protein stability index
1,N13A,3.58
2,N13T,4
3,N13V,3.75
4,N13I,3.21
5,N13R,3.33
6,N13M,3.69
7,N13L,3.3
8,E4G,3.46
9,E4S,3.99
10,E4A,3.3
11,E4F,3.6
12,E4K,3.69
13,E4H,3.09
14,E4L,3.52
15,E4V,3.5
16,E4T,3.26
17,E4I,3.06
18,E4M,2.82
19,E4R,3.66
20,E4C,3.55
21,E4Q,4.06
22,E4N,3.87
23,E4D,4.01
24,E4P,3.64
25,E4Y,2.83

row,Variant,protein stability index
1,E4W,3.24
2,A10M,3.51
3,A10L,3.73
4,A10F,3.44
5,A10Y,3.65
6,A10E,4.51
7,A10G,3.86
8,A10T,4.39
9,A10I,2.74
10,A10N,4.41
11,A10Q,4.27
12,A10H,4.2
13,A10S,4.01
14,A10C,3.88
15,A10D,3.78
16,A10K,4.15
17,A10P,3.78
18,A10W,3.51
19,A10R,3.88
20,A10V,3.45
